The term Kd denotes the concentration at which binding is half-saturated. The term koff denotes the first-order rate constant of dissociation. Read a low koff as a long-lived complex. Usually kon stands for the second-order rate constant of association.

This assay deals with human SEZ6-His (soluble hSEZ6-his antigen) (human) (UniProt Q53EL9). The experiment in a line: SPR, Biacore T200, human SEZ6-His captured on anti-His chip, Fab as analyte. In general terms: Surface plasmon resonance follows binding to a sensor surface in real time, without labels.
UniProt Q53EL9, sequence (Q53EL9 20-925): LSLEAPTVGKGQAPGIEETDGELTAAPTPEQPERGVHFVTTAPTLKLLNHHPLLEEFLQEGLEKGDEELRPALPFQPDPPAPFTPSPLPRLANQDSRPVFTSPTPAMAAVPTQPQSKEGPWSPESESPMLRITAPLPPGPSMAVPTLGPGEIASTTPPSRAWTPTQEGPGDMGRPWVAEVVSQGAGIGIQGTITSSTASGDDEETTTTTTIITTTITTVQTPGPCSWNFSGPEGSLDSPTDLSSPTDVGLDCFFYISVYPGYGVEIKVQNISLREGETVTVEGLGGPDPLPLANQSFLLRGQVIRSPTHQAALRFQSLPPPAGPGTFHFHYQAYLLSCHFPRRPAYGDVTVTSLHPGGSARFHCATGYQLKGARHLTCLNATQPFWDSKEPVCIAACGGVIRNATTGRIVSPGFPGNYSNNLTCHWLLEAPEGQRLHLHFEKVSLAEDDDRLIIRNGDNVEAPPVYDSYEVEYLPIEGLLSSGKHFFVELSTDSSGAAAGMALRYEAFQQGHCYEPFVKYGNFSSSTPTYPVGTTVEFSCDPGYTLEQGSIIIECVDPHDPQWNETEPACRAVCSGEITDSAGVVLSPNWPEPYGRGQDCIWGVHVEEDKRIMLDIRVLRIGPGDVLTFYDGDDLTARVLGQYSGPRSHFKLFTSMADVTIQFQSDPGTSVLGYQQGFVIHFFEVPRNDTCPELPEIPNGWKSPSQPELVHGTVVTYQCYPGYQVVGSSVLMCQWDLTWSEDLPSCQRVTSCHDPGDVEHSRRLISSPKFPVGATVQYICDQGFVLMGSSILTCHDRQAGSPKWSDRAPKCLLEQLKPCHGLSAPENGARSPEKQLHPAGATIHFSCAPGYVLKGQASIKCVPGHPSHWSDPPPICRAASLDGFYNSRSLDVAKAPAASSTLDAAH

B1: MutA (S60N) Fab (Fab construct of the hSEZ6-1.ss1 antibody with the S60N mutation) (Fab, V domains shown)
VH: EVQLVQSGAEVKKPGESLKISCKGSGYSFTSSWINWVRQMPGKGLEWMGRIYPGEGDTNYNGNFEGQVTISADKSISTAYLQWSSLKASDTAMYYCTRGLVMDYWGQGTLVTVSS
VL: EIVLTQSPATLSLSPGERATLSCRASQSVDYNGISYMHWYQQKPGQAPRLLIYAASNVQSGIPARFSGSGSGTDFTLTISSLEPEDFAVYYCQQSIEDPPTFGGGTKVEIK
Molecule B1 came in with a Kd of 4.8 nM, a koff of 0.006 s⁻¹ and an on-rate constant (kon) of 1.3e+06 M⁻¹ s⁻¹.

(Values after patent US20210196834A1.)
